From article PMC13598120

B1: Flag-tagged GNL3 (Flag-GNL3), wild type [human] / RAD51, endogenous [human (endogenous in U2OS and HeLa)] (parent)
chain 1: MKRPKLKKASKRMTCHKRYKIQKKVREHHRKLRKEAKKRGHKKPRKDPGVPNSAPFKEALLREAELRKQRLEELKQQQKLDRQKELEKKRKLETNPDIKPSNVEPMEKEFGLCKTENKAKSGKQNSKKLYCQELKKVIEASDVVLEVLDARDPLGCRCPQVEEAIVQSGQKKLVLILNKSDLVPKENLESWLNYLKKELPTVVFRASTKPKDKGKITKRVKAKKNAAPFRSEVCFGKEGLWKLLGGFQETCSKAIRVGVIGFPNVGKSSIINSLKQEQMCNVGVSMGLTRSMQVVPLDKQITIIDSPSFIVSPLNSSSALALRSPASIEVVKPMEAASAILSQADARQVVLKYTVPGYRNSLEFFTVLAQRRGMHQKGGIPNVEGAAKLLWSEWTGASLAYYCHPPTSWTPPPYFNESIVVDMKSGFNLEELEKNNAQSIRAIKGPHLANSILFQSSGLTNGIIEEKDIHEELPKRKERKQEEREDDKDSDQETVDEEVDENSSGMFAAEETGEALSEETTAGEQSTRSFILDKIIEEDDAYDFSTDYV
chain 2: MAMQMQLEANADTSVEEESFGPQPISRLEQCGINANDVKKLEEAGFHTVEAVAYAPKKELINIKGISEAKADKILAEAAKLVPMGFTTATEFHQRRSEIIQITTGSKELDKLLQGGIETGSITEMFGEFRTGKTQICHTLAVTCQLPIDRGGGEGKAMYIDTEGTFRPERLLAVAERYGLSGSDVLDNVAYARAFNTDHQTQLLYQASAMMVESRYALLIVDSATALYRTDYSGRGELSARQMHLARFLRMLLRLADEFGVAVVITNQVVAQVDGAAMFAADPKKPIGGNIIAHASTTRLYLRKGRGETRICKIYDSPCLPEAEAMFAINADGVGDAKD

Variants of: B1
Test: co-IP (anti-Flag IP, IB RAD51, band quantification)
Settings: with RAD51, endogenous [human (endogenous in U2OS and HeLa)]; U2OS cells; 20 μM ETO, 0 h; read off a plot
With chain 1 MKRPKLKKASKRMTCHKRYKIQKKVREHHRKLRKEAKKRGHKKPRKDPGVPNSAPFKEALLREAELRKQRLEELKQQQKLDRQKELEKKRKLETNPDIKPSNVEPMEKEFGLCKTENKAKSGKQNSKKLYCQELKKVIEASDVVLEVLDARDPLGCRCPQVEEAIVQSGQKKLVLILNKSDLVPKENLESWLNYLRKELPTVVFRASTKPKDKGKITKRVKAKKNAAPFRSEVCFGKEGLWKLLGGFQETCSKAIRVGVIGFPNVGKSSIINSLKQEQMCNVGVSMGLTRSMQVVPLDKQITIIDSPSFIVSPLNSSSALALRSPASIEVVKPMEAASAILSQADARQVVLKYTVPGYRNSLEFFTVLAQRRGMHQKGGIPNVEGAAKLLWSEWTGASLAYYCHPPTSWTPPPYFNESIVVDMKSGFNLEELEKNNAQSIRAIKGPHLANSILFQSSGLTNGIIEEKDIHEELPKRKERKQEEREDDKDSDQETVDEEVDENSSGMFAAEETGEALSEETTAGEQSTRSFILDKIIEEDDAYDFSTDYV [chain 1 K196R] the response (relative level) was 0.17.

Same assay, conditions: with RAD51, endogenous [human (endogenous in U2OS and HeLa)]; U2OS cells; 20 μM ETO, 2 h; read off a plot
In the case of chain 1 MKRPKLKKASKRMTCHKRYKIQKKVREHHRKLRKEAKKRGHKKPRKDPGVPNSAPFKEALLREAELRKQRLEELKQQQKLDRQKELEKKRKLETNPDIKPSNVEPMEKEFGLCKTENKAKSGKQNSKKLYCQELKKVIEASDVVLEVLDARDPLGCRCPQVEEAIVQSGQKKLVLILNKSDLVPKENLESWLNYLRKELPTVVFRASTKPKDKGKITKRVKAKKNAAPFRSEVCFGKEGLWKLLGGFQETCSKAIRVGVIGFPNVGKSSIINSLKQEQMCNVGVSMGLTRSMQVVPLDKQITIIDSPSFIVSPLNSSSALALRSPASIEVVKPMEAASAILSQADARQVVLKYTVPGYRNSLEFFTVLAQRRGMHQKGGIPNVEGAAKLLWSEWTGASLAYYCHPPTSWTPPPYFNESIVVDMKSGFNLEELEKNNAQSIRAIKGPHLANSILFQSSGLTNGIIEEKDIHEELPKRKERKQEEREDDKDSDQETVDEEVDENSSGMFAAEETGEALSEETTAGEQSTRSFILDKIIEEDDAYDFSTDYV [chain 1 K196R], the response (relative level) is reported as 0.52.

Same assay, conditions: with RAD51, endogenous [human (endogenous in U2OS and HeLa)]; U2OS cells; 20 μM ETO, 8 h; read off a plot
Variant chain 1 MKRPKLKKASKRMTCHKRYKIQKKVREHHRKLRKEAKKRGHKKPRKDPGVPNSAPFKEALLREAELRKQRLEELKQQQKLDRQKELEKKRKLETNPDIKPSNVEPMEKEFGLCKTENKAKSGKQNSKKLYCQELKKVIEASDVVLEVLDARDPLGCRCPQVEEAIVQSGQKKLVLILNKSDLVPKENLESWLNYLRKELPTVVFRASTKPKDKGKITKRVKAKKNAAPFRSEVCFGKEGLWKLLGGFQETCSKAIRVGVIGFPNVGKSSIINSLKQEQMCNVGVSMGLTRSMQVVPLDKQITIIDSPSFIVSPLNSSSALALRSPASIEVVKPMEAASAILSQADARQVVLKYTVPGYRNSLEFFTVLAQRRGMHQKGGIPNVEGAAKLLWSEWTGASLAYYCHPPTSWTPPPYFNESIVVDMKSGFNLEELEKNNAQSIRAIKGPHLANSILFQSSGLTNGIIEEKDIHEELPKRKERKQEEREDDKDSDQETVDEEVDENSSGMFAAEETGEALSEETTAGEQSTRSFILDKIIEEDDAYDFSTDYV [chain 1 K196R] has a response (relative level) of 0.31.
